Results reported in PMC4380928.

Columns and labels:
Assay in all cases: peptide microarray probed with GST protein
Conditions in all cases: reference: unphosphorylated Y124 15-mer; sites Y124
GRB2 1-217 = GRB2 1-217 (UniProt P62993)
GRB2 SH2, 75-160 = GRB2 SH2, 75-160 (UniProt P62993)
PIK3R3 (p55γ) 1-461 = PIK3R3 (p55γ) 1-461 (UniProt Q92569)

binding against the reference (GRB2 1-217): gained | binding against the reference (GRB2 SH2, 75-160): gained | binding against the reference (PIK3R3 (p55γ) 1-461): gained
Substance: TSPAN2 (tetraspanin 2) 15-mers, each centred on one tyrosine (from UniProt O60636) pY124 15-mer
